Source: patent US20030131383A1 (INTERLINK BIOTECHNOLOGIES, published 2003)
No end group written: not given here.

What was measured:
Test in all cases: cell-based or functional assay
Chymotrypsin = target: Chymotrypsin
Carboxypeptidase = target: Carboxypeptidase
Papain = target: T1, Papain (UniProt P00784 134-345)
T1 sequence (looked up): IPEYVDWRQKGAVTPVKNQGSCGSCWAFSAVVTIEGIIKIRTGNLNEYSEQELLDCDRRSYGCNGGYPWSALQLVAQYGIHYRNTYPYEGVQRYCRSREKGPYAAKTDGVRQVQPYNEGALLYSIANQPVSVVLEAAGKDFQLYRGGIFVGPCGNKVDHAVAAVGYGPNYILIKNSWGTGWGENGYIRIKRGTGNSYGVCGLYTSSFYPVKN

RRWPWWPWKWPLI-NH2 [Rev4 (reverse indolicidin), C-terminal amide form]
% Inhibition of Proteolysis by Rev4 at 2.5 µg/ml (Chymotrypsin): 16% | % Inhibition of Proteolysis by Rev4 at 5 µg/ml (Chymotrypsin): 42% | % Inhibition of Proteolysis by Rev4 at 10 µg/ml (Chymotrypsin): 75% | % Inhibition of Proteolysis by Rev4 at 20 µg/ml (Chymotrypsin): 97% | % Inhibition of Proteolysis by Rev4 at 2.5 µg/ml (Carboxypeptidase): 58% | % Inhibition of Proteolysis by Rev4 at 5 µg/ml (Carboxypeptidase): 92% | % Inhibition of Proteolysis by Rev4 at 10 µg/ml (Carboxypeptidase): 100% | % Inhibition of Proteolysis by Rev4 at 20 µg/ml (Carboxypeptidase): 100% | % Inhibition of Proteolysis by Rev4 at 2.5 µg/ml (Papain): 29% | % Inhibition of Proteolysis by Rev4 at 5 µg/ml (Papain): 72% | % Inhibition of Proteolysis by Rev4 at 10 µg/ml (Papain): 93% | % Inhibition of Proteolysis by Rev4 at 20 µg/ml (Papain): 99%
